Here are results for 21 molecules from patent US20100143349A1 (Pfizer, published 2010).

B1: 3G5 scFv-Fc fusion (Fc fusion)
chain: DIQMTQSPSSLSASVGDRVTITCRASQDVGIYVNWFQQKPGKAPRRLIYRATNLADGVPSRFSGSRSGTDFTLTISSLQPEDFATYYCLEFDEHPLTFGGGTKVEIKDGGGSGGGGSGGGGSSEVQLVESGGGLVQPGGSLRLSCAASGFTFNNYWMTWVRQAPGKGLEWVASIDNSGDNTYYPDSVKDRFTISRDNAKNSLYLQMNSLRAEDTAVYYCARGGDILDSLPYWGQGTLVTVSS
notes: Substitutions derived from the printed HCDR3; not shown: wild-type human IgG Fc (hinge and constant domains)
B2: 6B2 scFv-Fc fusion (Fc fusion)
chain: B1 chain with L226R, D227V, S228G, P230D, Y231V
notes: as for B1
B3: 8G9 scFv-Fc fusion (Fc fusion)
chain: B1 chain with G139S, L226T, D227T, S228G, P230D
notes: not shown: wild-type human IgG Fc (hinge and constant domains)
B4: 10D8 scFv-Fc fusion (Fc fusion)
chain: B1 chain with R18K, I31F, G114N, G133E, L226T, D227T, S228G, L229F, P230D
notes: also called 10D8 (b); not shown: wild-type human IgG Fc (hinge and constant domains)
B5: 6C2 scFv-Fc fusion (Fc fusion)
chain: B1 chain with L226K, D227V, P230D, Y231R
notes: as for B3
B6: 5A3 scFv-Fc fusion (Fc fusion)
chain: B1 chain with R18I, G68S, Q205K, A220T, L226T, D227T, S228G, P230D
notes: as for B3
B7: 6B6 scFv-Fc fusion (Fc fusion)
chain: B1 chain with L226I, D227I, P230D, Y231W
notes: as for B1
B8: 6G4 scFv-Fc fusion (Fc fusion)
chain: B1 chain with P230H, Y231F
notes: Assayed separately; fold gain against the M4 value of the ribosome display set; not shown: wild-type human IgG Fc (hinge and constant domains)
B9: 10G10 scFv-Fc fusion (Fc fusion)
chain: B1 chain with K103R, T158S, D179E, L226T, D227T, S228G, L229F, P230D
notes: as for B3
B10: 6C3 scFv-Fc fusion (Fc fusion)
chain: B1 chain with L226T, D227L, S228G, P230D, Y231V
notes: as for B3
B11: parental XT-M4 scFv-Fc fusion (Fc fusion)
chain: B1 chain with L226T, D227T, S228G, L229F, P230D
notes: Bivalent scFv-Fc made in COS cells; not shown: wild-type human IgG Fc (hinge and constant domains)
B12: parental XT-M4 scFv (VH 2.0, VL 2.11), VL-VH format (scFv)
scFv: B1 chain with L226T, D227T, S228G, L229F, P230D
notes: also called M4WT
B13: S2R4A3_10D8 scFv (scFv)
scFv: B1 chain with R18K, I31F, G114N, G133E, L226T, D227T, S228G, L229F, P230D
notes: also called 10D8 (b)
B14: S2R4A4_1G6 scFv (scFv)
scFv: B1 chain with I31F, L226T, D227N, S228G, L229F, P230D
B15: S2R3A1_5H3 scFv (scFv)
scFv: B1 chain with Y49D, Q126L, L226T, D227T, S228G, L229F, P230D
B16: S2R3A1_8G9 scFv (scFv)
scFv: B1 chain with G139S, L226T, D227T, S228G, P230D
B17: S2R4A3_10H6 scFv (scFv)
scFv: B1 chain with R18G, R24Q, D108N, L226T, D227T, S228G, P230D, V240E
notes: also called 10H6 (a)
B18: S1R5A1_10G10 scFv (scFv)
scFv: B1 chain with K103R, T158S, D179E, L226T, D227T, S228G, L229F, P230D
B19: S2R4A3_5A3 scFv (scFv)
scFv: B1 chain with R18I, G68S, Q205K, A220T, L226T, D227T, S228G, P230D
B20: S1R5A1_3B3 scFv (scFv)
scFv: B1 chain with I31F, L226T, D227T, S228G, P230D
B21: S2R3A1_2E6 scFv (scFv)
scFv: B1 chain with S122N, G132V, L226T, D227N, S228G, P230D
notes: also called 2E6 (c)

Changes are numbered by the printed parent chain. Values joined by “and” are separate entries in the source; they are usually repeats but may differ in a detail not shown here. Identical values can stand only once.

T1 sequence (Q15109 23-342): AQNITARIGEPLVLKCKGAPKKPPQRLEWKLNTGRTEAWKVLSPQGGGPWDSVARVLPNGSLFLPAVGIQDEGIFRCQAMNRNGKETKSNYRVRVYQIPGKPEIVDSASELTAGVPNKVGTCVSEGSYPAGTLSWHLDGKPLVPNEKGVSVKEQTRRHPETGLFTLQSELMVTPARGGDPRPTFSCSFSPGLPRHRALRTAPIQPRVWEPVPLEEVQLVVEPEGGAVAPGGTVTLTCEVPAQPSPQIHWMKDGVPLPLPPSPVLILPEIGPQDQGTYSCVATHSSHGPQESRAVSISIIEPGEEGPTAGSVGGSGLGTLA

One test addresses T1, HU-RAGE-SA (human, UniProt Q15109 23-342).
T1 construct: extracellular domain; Directly immobilized on a CM5 chip (~100 RU); also called hRAGE-SA; soluble human streptavidin-tagged RAGE; not shown: streptavidin tag (SA)
Kind of test: BIAcore kd against parental M4 scFv-Fc. In general terms: Surface plasmon resonance follows binding to a sensor surface in real time, without labels.
For the molecule B1, the “Fold change in kd” value is 65.1 fold.

For B2, the “Fold change in kd” value worked out at 61 fold.

Take B3: the “Fold change in kd” value came out at 3.9 fold.

For B4, the “Fold change in kd” value came to 51.8 fold.

With B5, the “Fold change in kd” value was 19.2 fold.

With B6, the “Fold change in kd” value is 5.9 fold.

Turning to B7, the “Fold change in kd” value is 20.8 fold.

For the molecule B8, the “Fold change in kd” value is 7.6 fold.

On to B9, for which the “Fold change in kd” value is 0.28 fold.

Regarding B10, the “Fold change in kd” value was 60 fold.

A further test deals with T2, human RAGE expressed on CHO cells (human, UniProt Q15109 23-404).
T2 construct: whole, on cells; also called CHO-RAGE cells; cell surface expressed human RAGE
T2 sequence (Q15109 23-404): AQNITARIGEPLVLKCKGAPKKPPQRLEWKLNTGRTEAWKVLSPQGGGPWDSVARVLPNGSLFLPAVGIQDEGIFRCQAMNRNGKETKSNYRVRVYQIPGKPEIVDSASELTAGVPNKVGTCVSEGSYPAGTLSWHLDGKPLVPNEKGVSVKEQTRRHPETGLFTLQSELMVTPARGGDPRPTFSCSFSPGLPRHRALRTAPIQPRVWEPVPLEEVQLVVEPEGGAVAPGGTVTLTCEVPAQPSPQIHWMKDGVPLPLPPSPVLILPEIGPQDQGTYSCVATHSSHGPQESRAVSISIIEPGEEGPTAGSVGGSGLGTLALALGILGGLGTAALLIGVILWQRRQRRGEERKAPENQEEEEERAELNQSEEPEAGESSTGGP
Kind of test: cell ELISA on CHO-RAGE cells, A450 corrected for control CHO cells. The procedure: (§1) Stably transfected Chinese Hamster Ovary (CHO) cells were engineered to express murine and human RAGE full length proteins. The murine and human RAGE cDNAs were cloned into the mammalian expression vector pSMED, linearized and transfected into CHO cells using lipofectin methods (Kaufman, R. J., 1990, Methods in Enzymology 185:537-66; Kaufman, R. J., 1990, Methods in Enzymology 185:487-511; Pittman, D. D. et al., 1993, Methods in Enzymology 222: 236). Cells were further selected in 20 nM methotrexate and cell extracts were harvested from individual clones and analyzed by SDS sodium dodecyl sulfate-polyacrylamide gel electrophoresis (SDS-PAGE) and Western blotting to confirm expression. […] Absorbance 450 nm values were corrected for the same clones binding to control CHO cells not expressing RAGE. EC50 values were calculated after curve fitting using GraphPad prism and are expressed in μg/ml.
Background: An ELISA detects its analyte on a solid surface through an enzyme-linked reagent.
Broadly, the EC50 is the concentration giving half of the maximal effect. B1 yielded an EC50 of 0.0565 µg/mL.

In turn, B2 registered an EC50 of 0.0816 µg/mL.

Consider B3, for which the EC50 was 0.077 µg/mL.

On to B4, for which the EC50 is 0.092 µg/mL.

B5 came in with an EC50 of 0.0285 µg/mL.

For the molecule B6, the response was half-maximal at 0.096 µg/mL (EC50).

For B7, a half-maximal effect (EC50) was put at 0.0285 µg/mL. This EC50 lies about 3.4-fold lower than the previous one.

B8: a half-maximal response (EC50) required 0.172 µg/mL.

For B9, the midpoint of the response, the EC50, lay at 0.133 µg/mL.

Molecule B10 returned an EC50 of 0.155 µg/mL.

Another test concerns the target T2, human RAGE expressed on CHO cells. Kind of test: cell ELISA on CHO-RAGE cells, A450 corrected for control CHO cells; phage display set. The procedure: as §1
The molecule B11 came in with an EC50 of 0.408 µg/mL.

Another test deals with T3, hRAGE-Fc (human, UniProt Q15109 23-342, biotin label in the selections and HTRF assays).
T3 construct: extracellular domain; also called biotin labeled hRAGE-Fc; Biotin-labeled RAGE-Fc; not shown: Fc part
T3 sequence (Q15109 23-342): as the sequence (Q15109 23-342) above
Kind of test: HTRF competition, scFv vs labelled parental XT-M4 (competitor) on biotin hRAGE-Fc. As for the experimental part:
(§2) Increases in binding to RAGE antigen were detected with the aid of a competition assay using parental XT-M4 antibody. Both phage display and ribosome display libraries were selected for affinity improved variants by incubating with biotin labeled hRAGE-Fc, recovering binding clones using streptavidin magnetic beads and washing away non binding variants. Sequential rounds of selection were carried on decreasing antigen concentrations to drive the preferential recovery of higher affinity variants. Clones recovered after selection were subsequently screening for improved binding to hRAGE-Fc using HTRF. This is an assay that measures the decrease in fluorescence upon binding of parental europium cryptate-labeled XT-M4 to RAGE in the presence of competing test scFv antibodies. In these assays, periplasmic preparations of scFv were prepared from bacterial cultures and added in increasing concentrations to a combination of parental antibody and antigen. The ability of the scFV to compete with parental XT-M4 antibody to bind to Biotin-labeled RAGE-Fc was determined. In the presence of avidin-XL665 complex labeled XT-M4 bound to biotinylated RAGE-FC was detected by Fluorescence. Increasing amounts of scFv that competed with the XT-M4 for binding to biotinylated-RAGE-Fc was detected as a decrease in fluorescence. A sequential process of screening was used to focus in on a smaller number of clones with the greatest competition in HTRF assay
On the technique in general: In TR-FRET formats the signal depends on donor and acceptor labels being close together.
One may read the IC50 as the concentration at which inhibition is half-maximal. For the molecule B12, the IC50 was 33 nM.

Regarding B13, the IC50 worked out at 2.6 nM.

With B14, the IC50 was 1.2 nM.

B15: the IC50 is 8.2 nM.

For B16, the IC50 was ~2.4 nM.

As to B17, the IC50 amounted to 0.3 nM.

On to B18, for which the IC50 was determined as 16.3 nM.

For B19, the IC50 is ~3 nM.

For B20, the IC50 amounted to 2.2 nM.

Take B21: the IC50 amounted to 1.9 nM.

The next test concerns the target T3, hRAGE-Fc. Described as above. This is another data set of the same source. The procedure: as §2
Take B12: the IC50 was found to be 33.2 nM.

The target in the next test is T3, hRAGE-Fc. Kind of test: IC50 of parental M4 scFv over IC50 of clone, HTRF competition. The procedure:
as §2
As for B13, the “Fold gain scFv (hRAGE)” value amounted to 12.7 fold.

In the case of B14, the “Fold gain scFv (hRAGE)” value turned out to be 21.5 fold.

In the case of B15, the “Fold gain scFv (hRAGE)” value is 4 fold.

For the molecule B16, the “Fold gain scFv (hRAGE)” value is 13.8 fold.

On to B17, for which the “Fold gain scFv (hRAGE)” value stood at 110 fold.

For B18, the “Fold gain scFv (hRAGE)” value amounted to 2 fold.

Consider B19, for which the “Fold gain scFv (hRAGE)” value turned out to be 11 fold.

For B20, the “Fold gain scFv (hRAGE)” value is 15 fold.

As to B21, the “Fold gain scFv (hRAGE)” value was 17.3 fold.

The next test has as its target T3, hRAGE-Fc. Kind of test: IC50 of parental M4 scFv-Fc (value of the ribosome display set) over IC50 of clone, HTRF competition.
Take B8: the “Fold gain scFv-Fc (hRAGE)” value turned out to be 11.1 fold.

For another test, the target named is T1, HU-RAGE-SA. Kind of test: BIAcore, 10 nM scFv-Fc over directly immobilized HU-RAGE-SA, 1:1 fit.
As usually defined, the koff is the rate constant with which the complex falls apart. Lower therefore signals slow dissociation. Regarding B11, the koff was 0.0293 s⁻¹ and 0.0291 s⁻¹.

In turn, B1 registered a koff of 0.00045 s⁻¹.

As for B2, the off-rate constant (koff) turned out to be 0.000484 s⁻¹.

The molecule B3 registered a koff of 0.00344 s⁻¹.

B4 showed a koff of 0.000566 s⁻¹.

B5 yielded a koff of 0.00153 s⁻¹.

Turning to B6, the koff is 0.00494 s⁻¹.

With B7, the koff came out at 0.00141 s⁻¹. This koff is about 3.5-fold lower than that of the molecule before.

On to B8, for which the koff was determined as 0.00388 s⁻¹.

Regarding B9, the koff turned out to be 0.105 s⁻¹.

For the molecule B10, the koff turned out to be 0.000488 s⁻¹. Against the preceding molecule, the koff is about 220-fold lower.

The target in another test is T2, human RAGE expressed on CHO cells. Kind of test: cell ELISA on CHO-RAGE cells, A450 corrected for control CHO cells; ribosome display set. The procedure:
as §1
As for B11, the EC50 was determined as 0.388 µg/mL.

For another test, the target named is T3, hRAGE-Fc. Kind of test: IC50 of parental M4 scFv-Fc over IC50 of clone, HTRF competition.
In the case of B1, the “Fold gain scFv-Fc (hRAGE)” value was determined as 62.7 fold.

Regarding B2, the “Fold gain scFv-Fc (hRAGE)” value was 8.2 fold.

Turning to B3, the “Fold gain scFv-Fc (hRAGE)” value was 5.1 fold.

On to B4, for which the “Fold gain scFv-Fc (hRAGE)” value worked out at 8.8 fold.

As to B5, the “Fold gain scFv-Fc (hRAGE)” value was found to be 9.4 fold.

As to B6, the “Fold gain scFv-Fc (hRAGE)” value was 12.2 fold.

In the case of B7, the “Fold gain scFv-Fc (hRAGE)” value was 7.6 fold.

In the case of B9, the “Fold gain scFv-Fc (hRAGE)” value came out at 5 fold.

In the case of B10, the “Fold gain scFv-Fc (hRAGE)” value amounted to 38.6 fold.

For another test, the target named is T3, hRAGE-Fc. Kind of test: HTRF competition, scFv vs labelled parental XT-M4 (competitor) on hRAGE. As for the experimental part: as §2
As for B12, the IC50 was found to be 33 nM.

In the case of B13, the IC50 amounted to 2.6 nM.

Turning to B14, the IC50 came to 1.2 nM.

Regarding B15, the IC50 came out at 8.2 nM.

For the molecule B16, the half-maximal inhibitory concentration (IC50) is 2.4 nM.

In the case of B17, the IC50 turned out to be 0.3 nM.

In the case of B18, the IC50 amounted to 16.3 nM.

Take B19: the IC50 was 3 nM.

For the molecule B20, the IC50 was 2.2 nM.

For B21, the IC50 was determined as 1.9 nM.
